How the values were obtained:
[1] = target: T1, FjGH65A (Flavobacterium johnsoniae, UniProt A5FBJ5, E472Q); test: hydrolysis activity; type: biochemical; conditions: general acid catalyst mutant
T1 construct: gene Fjoh_4428; residues 24-681, signal peptide removed, N-terminal His6 tag (pET28a), E. coli BL21(DE3); hexamer (433 kDa by gel filtration)

[2] = target: T2, FjGH65A (Flavobacterium johnsoniae, UniProt A5FBJ5, E616Q); test: hydrolysis activity; type: biochemical; conditions: general base catalyst mutant
T2 construct: gene Fjoh_4428; residues 24-681, signal peptide removed, N-terminal His6 tag (pET28a), E. coli BL21(DE3); hexamer (433 kDa by gel filtration)
T2 sequence (A5FBJ5 24-681 E616Q): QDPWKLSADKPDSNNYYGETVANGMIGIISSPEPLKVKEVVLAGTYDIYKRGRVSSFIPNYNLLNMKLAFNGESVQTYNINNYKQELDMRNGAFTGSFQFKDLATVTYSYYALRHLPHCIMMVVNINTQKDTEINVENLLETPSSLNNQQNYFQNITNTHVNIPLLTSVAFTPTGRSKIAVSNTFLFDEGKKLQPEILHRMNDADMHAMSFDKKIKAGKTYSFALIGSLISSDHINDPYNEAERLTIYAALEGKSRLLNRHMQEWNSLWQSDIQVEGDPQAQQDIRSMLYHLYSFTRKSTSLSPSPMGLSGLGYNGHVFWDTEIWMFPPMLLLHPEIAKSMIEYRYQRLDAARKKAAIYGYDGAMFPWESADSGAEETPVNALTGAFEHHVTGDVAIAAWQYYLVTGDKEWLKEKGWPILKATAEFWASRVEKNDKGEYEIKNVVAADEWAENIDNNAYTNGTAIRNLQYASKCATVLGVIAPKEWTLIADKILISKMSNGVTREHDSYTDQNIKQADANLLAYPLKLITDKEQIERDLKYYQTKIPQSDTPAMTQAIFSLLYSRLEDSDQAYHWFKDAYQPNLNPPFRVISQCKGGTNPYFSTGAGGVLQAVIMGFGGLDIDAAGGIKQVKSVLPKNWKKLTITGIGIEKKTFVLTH

[3] = target: T3, FjGH65A (Flavobacterium johnsoniae, UniProt A5FBJ5); test: X-ray crystal structure of the complex, […] Å; type: binding; conditions: crystal cryoprotected with 30% (w/v) glucose; four sites: subsites -1, +1, +2 and linker region
T3 construct: gene Fjoh_4428; residues 24-681, signal peptide removed, N-terminal His6 tag (pET28a), E. coli BL21(DE3); hexamer (433 kDa by gel filtration)

[4] = target: FjGH65A (Fjoh_4428), GH65 α-1,2-glucosidase from Flavobacterium johnsoniae (Flavobacterium johnsoniae); test: crystal structure; space group C2, three monomers (MolA, MolB, MolC) in the asymmetric unit; hexamer by the crystallographic two-fold axis, PISA analysis; native 1.54 Å and glucose complex 1.40 Å
[5] = target: FjGH65A (Fjoh_4428), GH65 α-1,2-glucosidase from Flavobacterium johnsoniae (Flavobacterium johnsoniae); test: SEC; gel filtration on HiPrep 16/60 Sephacryl S-200 HR, 20 mM sodium citrate buffer (pH 6.0) with 150 mM NaCl; column calibrated with thyroglobulin, ferritin, aldolase, conalbumin and ovalbumin
[6] = substrate: OC[C@H]1O[C@H](F)[C@H](O)[C@@H](O)[C@@H]1O; test: hydrolysis kinetics (assay details for this substrate not stated); type: biochemical, Flavobacterium johnsoniae; conditions: kinetic conditions for this substrate not stated
Source text: hydrolysis kinetics (assay details for this substrate not stated) on FjGH65A

T1 sequence (A5FBJ5 24-681 E472Q): as the sequence (A5FBJ5 24-681 E616Q) above, with E449Q, Q593E counted along it

## OC[C@H]1O[C@H](O[C@H]2C(O)O[C@H](CO)[C@@H](O)[C@@H]2O)[C@H](O)[C@@H](O)[C@@H]1O (mixture of isomers) [Kojibiose]
[1]
  activity (% of wild type): < 0.1%
[2]
  activity (% of wild type): < 0.1%

## OC[C@H]1O[C@@H](O)[C@H](O)[C@@H](O)[C@@H]1O [β-glucose]
[3]
  X-ray crystal structure of the complex, 1.40 Å: Each monomer of FjGH65A binds four β-glucose molecules

## FjGH65A (Fjoh_4428), GH65 α-1,2-glucosidase from Flavobacterium johnsoniae (enzyme)
[4]
  stoichiometry N: 6
[5]
  stoichiometry N: 6

B1: FjGH65A (Flavobacterium johnsoniae UW101) (protein)
chain: QDPWKLSADKPDSNNYYGETVANGMIGIISSPEPLKVKEVVLAGTYDIYKRGRVSSFIPNYNLLNMKLAFNGESVQTYNINNYKQELDMRNGAFTGSFQFKDLATVTYSYYALRHLPHCIMMVVNINTQKDTEINVENLLETPSSLNNQQNYFQNITNTHVNIPLLTSVAFTPTGRSKIAVSNTFLFDEGKKLQPEILHRMNDADMHAMSFDKKIKAGKTYSFALIGSLISSDHINDPYNEAERLTIYAALEGKSRLLNRHMQEWNSLWQSDIQVEGDPQAQQDIRSMLYHLYSFTRKSTSLSPSPMGLSGLGYNGHVFWDTEIWMFPPMLLLHPEIAKSMIEYRYQRLDAARKKAAIYGYDGAMFPWESADSGAEETPVNALTGAFEHHVTGDVAIAAWQYYLVTGDKEWLKEKGWPILKATAEFWASRVEKNDKGEYEIKNVVAADEWAENIDNNAYTNGTAIRNLQYASKCATVLGVIAPKEWTLIADKILISKMSNGVTREHDSYTDQNIKQADANLLAYPLKLITDKEQIERDLKYYQTKIPQSDTPAMTQAIFSLLYSRLEDSDQAYHWFKDAYQPNLNPPFRVISECKGGTNPYFSTGAGGVLQAVIMGFGGLDIDAAGGIKQVKSVLPKNWKKLTITGIGIEKKTFVLTH
notes: residues 24-681, signal peptide removed, N-terminal His6 tag (pET28a), E. coli BL21(DE3); hexamer (433 kDa by gel filtration)
[6]
  Km: 3.1 ± 0.2 mM
  kcat: 56.1 ± 1.8 s⁻¹
  kcat/Km: 18100 M⁻¹ s⁻¹

From paper PMC8626586, “Structure of a bacterial α-1,2-glucosidase defines mechanisms of hydrolysis and substrate specificity in GH65 family hydrolases” (The Journal of Biological Chemistry, 2021)
